Assay [1] concerns the target RECQL5 KIX domain (RECQL5_(515–620)) (human) (UniProt O94762). Description: SAXS.
For assay [2] the target is unchanged. Nature of the assay: crystal structure.
The target of assay [3] is Fluorescently labeled RECQL5_(1–620) (human) (UniProt O94762). Nature of the assay: native gel or EMSA. Background: Mobility shift assays separate free from complexed probe on a gel.

The term stoichiometry N denotes the number of molecules, sites or subunits per partner or assembly. As usually defined, the Kd is the free concentration of one partner at which half of the binding sites on the other are occupied at equilibrium, for simple one-to-one binding. A low value points to a tighter complex.

Chain of Fluorescently labeled RECQL5_(1–620) (human) (O94762 1-620): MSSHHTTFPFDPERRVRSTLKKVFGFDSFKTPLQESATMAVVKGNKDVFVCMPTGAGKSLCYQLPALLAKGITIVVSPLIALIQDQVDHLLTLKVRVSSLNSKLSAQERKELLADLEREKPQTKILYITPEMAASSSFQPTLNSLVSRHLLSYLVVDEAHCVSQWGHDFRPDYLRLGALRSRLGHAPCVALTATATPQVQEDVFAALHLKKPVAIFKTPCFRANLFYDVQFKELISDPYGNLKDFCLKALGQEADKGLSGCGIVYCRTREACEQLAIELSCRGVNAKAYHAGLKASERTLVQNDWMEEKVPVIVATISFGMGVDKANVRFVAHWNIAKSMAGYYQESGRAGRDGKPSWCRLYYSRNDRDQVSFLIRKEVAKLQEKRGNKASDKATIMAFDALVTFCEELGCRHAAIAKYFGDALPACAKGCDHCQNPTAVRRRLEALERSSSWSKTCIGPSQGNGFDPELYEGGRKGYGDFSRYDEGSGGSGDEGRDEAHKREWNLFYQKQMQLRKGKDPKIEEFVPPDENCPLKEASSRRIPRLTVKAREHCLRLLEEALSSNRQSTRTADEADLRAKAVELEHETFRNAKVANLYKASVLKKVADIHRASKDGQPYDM

On to “RECQL5 KIX domain (RECQL5_(515–620)) (from UniProt O94762 515-620) (domain or fragment)”, for which the stoichiometry N in assay [1] and in assay [2] was 2 in each case. As to “human RNA polymerase II (from UniProt P24928;P30876) (complex)”, the Kd in assay [3] amounted to 40 nM.

(Values after PMC3702667.)
